Results from patent US20130344089A1.

What was measured:
[1] = biological target: Aβ42 A21C/A30C (Aβ42-CC) monomers (UniProt P05067); assay: direct ELISA, Aβ42-CC monomers coated at pH 7.4
[2] = biological target: Aβ42 A21C/A30C (Aβ42-CC) monomers (UniProt P05067); assay: direct ELISA, Aβ42-CC monomers coated at pH 10.4
[3] = biological target: Aβ42 A21C/A30C (Aβ42-CC) monomers (UniProt P05067); assay: direct ELISA, Aβ42-CC monomers coated at pH 10.4 with 10 mM TCEP (reduced form)

A total Ig titer (log10) [1] of 2.1 log10 titer, a total Ig titer (log10) [2] of 2 log10 titer and a total Ig titer (log10) [3] of 2.1 log10 titer were found for “monoclonal antibody 6E10 (Covance Research Products)” in this work.
